In data set [1] the test system is HeLa Kyoto. The data set can be described thus: thermal stability score vs G1/S (z-score of summed log2 fold changes over temperatures); higher = more thermally stable than in G1/S.
In data set [2] the test system is HeLa Kyoto. The data set can be described thus: melting temperature (median over replicates), in situ; higher = more thermally stable.
Data set [3] concerns HeLa Kyoto. The data set can be described thus: solubility in G1/S (NP-40 vs SDS abundance) (log2 ratio); higher = more soluble. To be noted: cell cycle stage: G1/S.
The subject of data set [4] is HeLa Kyoto. Nature of the data set: solubility change mitosis vs G1/S (difference of NP-40 vs SDS log2 ratios) (log2 ratio difference); higher = more soluble in mitosis.
The mark [5] stands for this setting: cell cycle stage: early G1 (4.5 h after nocodazole release).
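Wherever melting temperature (median over replicates), in situ is given: HeLa Kyoto cells synchronized by double thymidine or nocodazole block, proteins quantified by TMT10plex mass spectrometry, three independent biological replicates.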
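Wherever solubility change mitosis vs G1/S (difference of NP-40 vs SDS log2 ratios) is given: synchronized HeLa Kyoto cells (double thymidine block for G1/S, nocodazole release for mitosis), protein amounts in NP-40 versus SDS lysates quantified by mass spectrometry, three biological replicates.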
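Wherever solubility in G1/S (NP-40 vs SDS abundance) is given: HeLa Kyoto cells arrested at G1/S by double thymidine block, proteins quantified by TMT10plex mass spectrometry in mild NP-40 versus SDS extracts, three biological replicates.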
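Wherever thermal stability score vs G1/S (z-score of summed log2 fold changes over temperatures) is given: synchronized HeLa Kyoto cells, proteins quantified by TMT10plex mass spectrometry, three biological replicates, mitosis taken 0.5 h after nocodazole release, G1/S directly after double thymidine block.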

On to “MAVPGDAARVRDKPVHSGVSQAPTAGRDCHHRADPASPRDSGCRGCWGDLVLQPLRSSRKLSSALCAGSLSFLLALLVRLVRGEVGCDLEQCKEAAAAEEEEAAPGAEGGVFPGPRGGAPGGGARLSPWLQPSALLFSLLCAFFWMGLYLLRAGVRLPLAVALLAACCGGEALVQIGLGVGEDHLLSLPAAGVVLSCLAAATWLVLRLRLGVLMIALTSAVRTVSLISLERFKVAWRPYLAYLAGVLGILLARYVEQILPQSAEAAPREHLGSQLIAGTKEDIPVFKRRRRSSSVVSAEMSGCSSKSHRRTSLPCIPREQLMGHSEWDHKRGPRGSQSSGTSITVDIAVMGEAHGLITDLLADPSLPPNVCTSLRAVSNLLSTQLTFQAIHKPRVNPVTSLSENYTCSDSEESSEKDKLAIPKRLRRSLPPGLLRRVSSTWTTTTSATGLPTLEPAPVRRDRSTSIKLQEAPSSSPDSWNNPVMMTLTKSRSFTSSYAISAANHVKAKKQSRPGALAKISPLSSPCSSPLQGTPASSLVSKISAVQFPESADTTAKQSLGSHRALTYTQSAPDLSPQILTPPVICSSCGRPYSQGNPADEPLERSGVATRTPSRTDDTAQVTSDYETNNNSDSSDIVQNEDETECLREPLRKASACSTYAPETMMFLDKPILAPEPLVMDNLDSIMEQLNTWNFPIFDLVENIGRKCGRILSQVSYRLFEDMGLFEAFKIPIREFMNYFHALEIGYRDIPYHNRIHATDVLHAVWYLTTQPIPGLSTVINDHGSTSDSDSDSGFTHGHMGYVFSKTYNVTDDKYGCLSGNIPALELMALYVAAAMHDYDHPGRTNAFLVATSAPQAVLYNDRSVLENHHAAAAWNLFMSRPEYNFLINLDHVEFKHFRFLVIEAILATDLKKHFDFVAKFNGKVNDDVGIDWTNENDRLLVCQMCIKLADINGPAKCKELHLQWTDGIVNEFYEQGDEEASLGLPISPFMDRSAPQLANLQESFISHIVGPLCNSYDSAGLMPGKWVEDSDESGDTDDPEEEEEEAPAPNEEETCENNESPKKKTFKRRKIYCQITQHLLQNHKMWKKVIEEEQRLAGIENQSLDQTPQSHSSEQIQAIKEEEEEKGKPRGEEIPTQKPDQ [PDE3A]”, for which the results for the thermal stability score in data set [1] (setting [5]) and in data set [1] (cell cycle stage: mitosis) were -2.5 and -4.37, respectively. The melting temperature in data set [2] (cell cycle stage: G1/S) was 51.8 °C; in data set [2] (cell cycle stage: mitosis) it was 49.6 °C. Also, the “solubility in G1/S (log2)” value in data set [3] was 0.0669. In data set [4], the “solubility change mitosis (log2)” value is -0.179.
For “MAVTITLKTLQQQTFKIRMEPDETVKVLKEKIEAEKGRDAFPVAGQKLIYAGKILSDDVPIRDYRIDEKNFVVVMVTKTKAGQGTSAPPEASPTAAPESSTSFPPAPTSGMSHPPPAAREDKSPSEESAPTTSPESVSGSVPSSGSSGREEDAASTLVTGSEYETMLTEIMSMGYERERVVAALRASYNNPHRAVEYLLTGIPGSPEPEHGSVQESQVSEQPATEAAGENPLEFLRDQPQFQNMRQVIQQNPALLPALLQQLGQENPQLLQQISRHQEQFIQMLNEPPGELADISDVEGEVGAIGEEAPQMNYIQVTPQEKEAIERLKALGFPESLVIQAYFACEKNENLAANFLLSQNFDDE [RAD23A]”, the thermal stability score in data set [1] (setting [5]) was -1.83; in data set [1] (cell cycle stage: mitosis), -1.48. Moreover, the melting temperature in data set [2] (cell cycle stage: G1/S) came to 56.3 °C; in data set [2] (cell cycle stage: mitosis), 55.5 °C. In addition, the “solubility in G1/S (log2)” value in data set [3] was determined as 0.0728. The “solubility change mitosis (log2)” value in data set [4] came out at 0.0994.
On to “MAVVIRLQGLPIVAGTMDIRHFFSGLTIPDGGVHIVGGELGEAFIVFATDEDARLGMMRTGGTIKGSKVTLLLSSKTEMQNMIELSRRRFETANLDIPPANASRSGPPPSSGMSSRVNLPTTVSNFNNPSPSVVTATTSVHESNKNIQTFSTASVGTAPPNMGASFGSPTFSSTVPSTASPMNTVPPPPIPPIPAMPSLPPMPSIPPIPVPPPVPTLPPVPPVPPIPPVPSVPPMTPLPPMSGMPPLNPPPVAPLPAGMNGSGAPMNLNNNLNPMFLGPLNPVNPIQMNSQSSVKPLPINPDDLYVSVHGMPFSAMENDVRDFFHGLRVDAVHLLKDHVGRNNGNGLVKFLSPQDTFEALKRNRMLMIQRYVEVSPATERQWVAAGGHITFKQNMGPSGQTHPPPQTLPRSKSPSGQKRSRSRSPHEAGFCVYLKGLPFEAENKHVIDFFKKLDIVEDSIYIAYGPNGKATGEGFVEFRNEADYKAALCRHKQYMGNRFIQVHPITKKGMLEKIDMIRKRLQNFSYDQREMILNPEGDVNSAKVCAHITNIPFSITKMDVLQFLEGIPVDENAVHVLVDNNGQGLGQALVQFKNEDDARKSERLHRKKLNGREAFVHVVTLEDMREIEKNPPAQGKKGLKMPVPGNPAVPGMPNAGLPGVGLPSAGLPGAGLPSTGLPGSAITSAGLPGAGMPSAGIPSAGGEEHAFLTVGSKEANNGPPFNFPGNFGGSNAFGPPIPPPGLGGGAFGDARPGMPSVGNSGLPGLGLDVPGFGGGPNNLSGPSGFGGGPQNFGNGPGSLGGPPGFGSGPPGLGSAPGHLGGPPAFGPGPGPGPGPGPIHIGGPPGFASSSGKPGPTVIKVQNMPFTVSIDEILDFFYGYQVIPGSVCLKYNEKGMPTGEAMVAFESRDEATAAVIDLNDRPIGSRKVKLVLG [RBM12]”, for which the thermal stability score in data set [1] (setting [5]) was 1.03; in data set [1] (cell cycle stage: mitosis), 4.25. The melting temperature in data set [2] (cell cycle stage: G1/S) is 48.7 °C; in data set [2] (cell cycle stage: mitosis), 49.2 °C. The “solubility in G1/S (log2)” value in data set [3] was 0.344. Also, in data set [4], the “solubility change mitosis (log2)” value was -0.147.
On to “MAVVPASLSGQDVGSFAYLTIKDRIPQILTKVIDTLHRHKSEFFEKHGEEGVEAEKKAISLLSKLRNELQTDKPFIPLVEKFVDTDIWNQYLEYQQSLLNESDGKSRWFYSPWLLVECYMYRRIHEAIIQSPPIDYFDVFKESKEQNFYGSQESIIALCTHLQQLIRTIEDLDENQLKDEFFKLLQISLWGNKCDLSLSGGESSSQNTNVLNSLEDLKPFILLNDMEHLWSLLSNCKKTREKASATRVYIVLDNSGFELVTDLILADFLLSSELATEVHFYGKTIPWFVSDTTIHDFNWLIEQVKHSNHKWMSKCGADWEEYIKMGKWVYHNHIFWTLPHEYCAMPQVAPDLYAELQKAHLILFKGDLNYRKLTGDRKWEFSVPFHQALNGFHPAPLCTIRTLKAEIQVGLQPGQGEQLLASEPSWWTTGKYGIFQYDGPL [ARMT1]”, for which the figures for the thermal stability score in data set [1] (setting [5]) and in data set [1] (cell cycle stage: mitosis) were 1.02 and 1.91, respectively. Besides, the melting temperature came out at 49.6 °C in data set [2] (cell cycle stage: G1/S) and 49 °C in data set [2] (cell cycle stage: mitosis). Also, the “solubility in G1/S (log2)” value in data set [3] is 0.0146. Besides, in data set [4], the “solubility change mitosis (log2)” value is -0.15.
Turning to “MAWRGWAQRGWGCGQAWGASVGGRSCEELTAVLTPPQLLGRRFNFFIQQKCGFRKAPRKVEPRRSDPGTSGEAYKRSALIPPVEETVFYPSPYPIRSLIKPLFFTVGFTGCAFGSAAIWQYESLKSRVQSYFDGIKADWLDSIRPQKEGDFRKEINKWWNNLSDGQRTVTGIIAANVLVFCLWRVPSLQRTMIRYFTSNPASKVLCSPMLLSTFSHFSLFHMAANMYVLWSFSSSIVNILGQEQFMAVYLSAGVISNFVSYVGKVATGRYGPSLGASGAIMTVLAAVCTKIPEGRLAIIFLPMFTFTAGNALKAIIAMDTAGMILGWKFFDHAAHLGGALFGIWYVTYGHELIWKNREPLVKIWHEIRTNGPKKGGGSK [PARL]”, the values for the thermal stability score in data set [1] (setting [5]) and in data set [1] (cell cycle stage: mitosis) were -0.187 and -2.36, respectively. Also, the values for the melting temperature in data set [2] (cell cycle stage: G1/S) and in data set [2] (cell cycle stage: mitosis) were 54.9 °C and 55.8 °C, respectively. Also, the “solubility in G1/S (log2)” value in data set [3] is -0.0323. Besides, in data set [4], the “solubility change mitosis (log2)” value was -0.267.
